# In patent US20180291081A1 (GUANGZHOU INSTITUTES OF BIOMEDICINE AND HEALTH CHINESE …, published 2018):
# Where a chain is given by its changes, count along the chain named.
# B1: high affinity PDL-1 molecule L3C7d (ligand)
# chain: WTVTVPKDLYVVEYGSNMTIECKFPVEKQLDLAALEVHWFMEDKNIFSFVHGEEDLKVQHSSYRQRARLLKDQLSLGNAALQITDVKLQDAGVYTCLIGYKGGADYKRITVKVNAPYNKINQRILVVDPVTSEHELTCQAEGYPKAEVIWTSSDHQVLSGKTTTTNSKREEKLFNVTSTLRINTTTNEIFYCTFRRLDPEENHTAELVIPEL
# B2: high affinity PDL-1 molecule L1A4 (ligand)
# chain: WTVTVPKDLYVVEYGSNMTIECKFPVEKQLDLAALQVFWMMEDKNIIQFVHGEEDLKVQHSSYRQRARLLKDQLSLGNAALQITDVKLQDAGVYTCLISYGGADYKRITVKVNAPYNKINQRILVVDPVTSEHELTCQAEGYPKAEVIWTSSDHQVLSGKTTTTNSKREEKLFNVTSTLRINTTTNEIFYCTFRRLDPEENHTAELVIPEL
# B3: high affinity PDL-1 molecule L2F4 (ligand)
# chain: B2 chain with W1F, Q36E, F38H, M40F, I47F, Q48S, T95R, L97M
# B4: high affinity PDL-1 molecule L22C7 (ligand)
# chain: B2 chain with W1F, Q36E, F38H, M40F, Q48S, T95R, L97M
# B5: high affinity PDL-1 molecule L3B3C (ligand)
# chain: B2 chain with I47V, Q48S, T95V, S99A, G101K
# B6: high affinity PDL-1 molecule L1F2 (ligand)
# chain: B2 chain with W1F, F38N, M40L, T95L
# B7: high affinity PDL-1 molecule L3D9 (ligand)
# chain: B2 chain with W1F, Q36N, M40F, S99G, G101E
# B8: high affinity PDL-1 molecule L3C7 (ligand)
# chain: B2 chain with W1F, Q36E, F38H, M40F, S99G, G101K
# B9: high affinity PDL-1 molecule L2D7 (ligand)
# chain: B2 chain with W1F, Q36E, F38H, M40F, I47L, Q48S, T95R, L97M
# B10: high affinity PDL-1 molecule L2F5 (ligand)
# chain: B2 chain with W1F, Q36E, F38H, M40F, I47S, Q48S, T95R, L97M
# B11: high affinity PDL-1 molecule L3G10 (ligand)
# chain: B2 chain with W1F, Q36T, F38A, M40Y, S99G, G101D
# B12: high affinity PDL-1 molecule L2G10 (ligand)
# chain: B2 chain with W1F, F38H, M40F, I47Y, Q48S, T95R, L97M
# B13: high affinity PDL-1 molecule L3C7b (ligand)
# chain: B2 chain with W1F, Q36E, F38H, M40F, I47F, Q48S, T95V, S99G, G101K
# B14: high affinity PDL-1 molecule L2A6 (ligand)
# chain: B2 chain with W1F, F38H, M40F, I47A, Q48S, T95R, L97M, L124R
# B15: high affinity PDL-1 molecule L3B3 (ligand)
# chain: B2 chain with W1F, S99A, G101K
# B16: high affinity PDL-1 molecule L2C4 (ligand)
# chain: B2 chain with W1F, F38H, M40W, I47V, Q48S, T95R, L97M
# B17: high affinity PDL-1 molecule L2H3 (ligand)
# chain: B2 chain with W1F, F38H, M40F, I47L, Q48S, T95R, L97M
# B18: high affinity PDL-1 molecule L1C2 (ligand)
# chain: B2 chain with W1F, F38N, M40F, T95V
# B19: high affinity PDL-1 molecule L32G5 (ligand)
# chain: B2 chain with W1F, Q36I, F38Y, M40E, S99G, G101H
# B20: high affinity PDL-1 molecule L3C7c (ligand)
# chain: B2 chain with Q36E, F38H, M40F, I47F, Q48S, S99G, G101K
# B21: high affinity PDL-1 molecule L22A5 (ligand)
# chain: B2 chain with W1F, F38H, M40F, I47P, Q48S, T95R, L97M
# B22: high affinity PDL-1 molecule L2B6 (ligand)
# chain: B2 chain with W1F, Q36E, F38H, M40F, I47V, Q48S, T95R, L97M, L124R
# B23: high affinity PDL-1 molecule L3B3d (ligand)
# chain: B2 chain with I47L, Q48S, T95V, S99A, G101K
# B24: high affinity PDL-1 molecule L3B3a (ligand)
# chain: B2 chain with W1F, I47V, Q48S, S99A, G101K
# B25: high affinity PDL-1 molecule L22D5 (ligand)
# chain: B2 chain with W1F, F38H, M40F, I47F, Q48S, T95R, L97M
# B26: high affinity PDL-1 molecule L2B8 (ligand)
# chain: B2 chain with W1F, F38H, M40F, I47V, Q48S, T95R, L97M
# B27: high affinity PDL-1 molecule L3C7a (ligand)
# chain: B2 chain with W1F, Q36E, F38H, M40F, I47F, Q48S, S99G, G101K
# B28: high affinity PDL-1 molecule L3B3b (ligand)
# chain: B2 chain with W1F, I47V, Q48S, T95V, S99A, G101K
# Target: T1, PD-1 molecule (refolded, purified and biotinylated PD-1 of Example 2) (UniProt Q15116 33-150, biotinylated with BirA enzyme (site not stated))
# T1 construct: also called Programmed Death-1
# T1 sequence (Q15116 33-150 limits assumed): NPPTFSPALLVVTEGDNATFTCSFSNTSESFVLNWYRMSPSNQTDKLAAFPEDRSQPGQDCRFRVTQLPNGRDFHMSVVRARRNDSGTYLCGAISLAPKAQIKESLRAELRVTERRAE
# Experiment: SPR (BIAcore T200), single-cycle kinetics; biotinylated PD-1 captured via streptavidin, PDL-1 variant in solution
# Method: The anti-streptavidin antibody (GenScript) was added to the coupling buffer (10 mM sodium acetate buffer, pH 4.77). The antibody was then flowed through a CMS chip previously activated with EDC and NHS to immobilize the antibody on the chip surface. Finally, the unreacted activation surface was blocked with a solution of ethanolamine hydrochloride to complete the coupling process.
# A low concentration of streptavidin is allowed to flow over the surface of the antibody-coated chip, then the biotinylated PD-1 is passed through the detection channel and the other channel is used as a reference channel. Then, 0.05 mM biotin was passed through the chip at a flow rate of 10 μL/min for 2 min to block the remaining binding sites of streptavidin. The single-cycle kinetic analysis method was used to measure its affinity. […] The binding time for each injection was 120 s, and it was disassociated for 600 s after the last injection. The chips were regenerated with 10 mMGly-HCl, pH 1.75 after each round of assays. Kinetic parameters were calculated using BIAcore Evaluation software.
Binder,Kd,koff,kon
B1,0.0539 µM,0.0059 s⁻¹,109000 M⁻¹ s⁻¹
B2,0.914 µM,0.0439 s⁻¹,48000 M⁻¹ s⁻¹
B3,7.54 µM,0.154 s⁻¹,20500 M⁻¹ s⁻¹
B4,11.9 µM,0.133 s⁻¹,11200 M⁻¹ s⁻¹
B5,0.648 µM,0.044 s⁻¹,67800 M⁻¹ s⁻¹
B6,3.44 µM,0.104 s⁻¹,30200 M⁻¹ s⁻¹
B7,3.39 µM,0.0871 s⁻¹,25700 M⁻¹ s⁻¹
B8,0.75 µM,0.0329 s⁻¹,43900 M⁻¹ s⁻¹
B9,10.9 µM,0.123 s⁻¹,11300 M⁻¹ s⁻¹
B10,10.1 µM,0.122 s⁻¹,12200 M⁻¹ s⁻¹
B11,11.8 µM,0.263 s⁻¹,22200 M⁻¹ s⁻¹
B12,4.6 µM,0.178 s⁻¹,38700 M⁻¹ s⁻¹
B13,0.123 µM,0.0176 s⁻¹,143000 M⁻¹ s⁻¹
B14,4.74 µM,0.0458 s⁻¹,9670 M⁻¹ s⁻¹
B15,0.499 µM,0.071 s⁻¹,142000 M⁻¹ s⁻¹
B16,11.2 µM,0.124 s⁻¹,11000 M⁻¹ s⁻¹
B17,8.97 µM,0.153 s⁻¹,17100 M⁻¹ s⁻¹
B18,0.751 µM,0.0376 s⁻¹,50100 M⁻¹ s⁻¹
B19,2.98 µM,0.169 s⁻¹,56600 M⁻¹ s⁻¹
B20,0.106 µM,0.0155 s⁻¹,147000 M⁻¹ s⁻¹
B21,4.84 µM,0.0559 s⁻¹,11500 M⁻¹ s⁻¹
B22,10.3 µM,0.134 s⁻¹,13000 M⁻¹ s⁻¹
B23,0.964 µM,0.0526 s⁻¹,54500 M⁻¹ s⁻¹
B24,0.557 µM,0.09 s⁻¹,162000 M⁻¹ s⁻¹
B25,6.48 µM,0.268 s⁻¹,41400 M⁻¹ s⁻¹
B26,11.7 µM,0.15 s⁻¹,12800 M⁻¹ s⁻¹
B27,0.115 µM,0.0139 s⁻¹,120000 M⁻¹ s⁻¹
B28,0.666 µM,0.0573 s⁻¹,86000 M⁻¹ s⁻¹
